{
  "source": "patent US20220380801A1",
  "about": "“TRIPARTITE SYSTEMS FOR PROTEIN DIMERIZATION AND METHODS OF USE” (priority 2019, published 2022)",
  "key": {"[1]": {"tested_on": "luciferase reporter gene in HEK293 cells", "test": "Transcriptional regulation assay (split transcription factor), luciferase reporter", "assay_type": "cell-based, human", "details": "protease variant-AD and DBD-PRSIM_23 (three tandem copies)", "from_the_text": "The iDimerize regulated transcription system (Takara) was used to test the ability of PRSIM-based CIDs to regulate gene expression. […] The DBD and AD are separately fused to the two protein components of a CID such that, only in the presence of the small molecule inducer, the AD is brought into close proximity to the DBD, recruiting the transcription machinery to a promoter harbouring the DBD recognition sites. The iDimerize regulated transcription system (Takara) provides two vectors, pHet-Act1-2 and pZFHD1-Luciferase. The pHet-Act1-2 vector encodes two fusion proteins that represent a positive control: one is a fusion between FRB (T82L mutant; DmrC) and an activation domain (AD) from human p65 (SEQ ID NO: 42); the other is a fusion protein comprised of a DNA binding domain (ZFHD1) (SEQ ID NO: 43) fused to three tandem copies of FKBP12 (DmrA). These sequences are preceded by a CMV promoter and separated by an internal ribosome entry site (IRES). The ZFHD1 vector encodes luciferase preceded by an inducible promoter consisting of 12 copies of the recognition sequence of the ZFHD1 DBD upstream of a minimal IL-2 promoter. Binding of the DBD to its recognition sequence and recruitment of the transcriptional machinery by the AD initiates transcription of the luciferase reporter gene. The DNA sequence encoding HCV NS3/4A PR (S139A) was purchased as a DNA string from GeneArt and cloned into the pHet-Act1-2 vector as either an N-terminal fusion partner to the activation domain (SEQ ID NO: 44) (replacing FRB) or as a C-terminal fusion partner to the DNA binding domain (SEQ ID NO: 45) (replacing FKBP12) with flexible linkers (TGGGGSGGGGS (SEQ ID NO: 185) and SA, respectively) between the fusion partners. Subsequently, sequences encoding one copy of a panel of 12 PRSIM molecules (Table 2) were purchased as DNA strings from GeneArt and were cloned using Gibson assembly into the HCV NS3/4A PR (S139A)-containing pHetAct1-2 constructs described above, as a fusion partner to either the DBD (SEQ ID NOS: 46-56) or AD (SEQ ID NOS: 57-67), respectively. An equivalent construct was generated to replace the three copies of FKBP12 in pHet-Act1-2 with a single copy of FKBP12. The sequence of the constructs encoding both activation domain and DNA-binding domain fusion proteins was confirmed by Sanger sequencing of the entire coding region.\nSequences encoding the three HCV NS3/4A PR (S139A) mutants (Table 6) were purchased as DNA strings from GeneArt and were cloned using Gibson assembly into the pHetAct1-2 HCV NS3/4A PR (S139A)-PRSIM_23 (3 tandem copy) construct described above as a fusion partner to the AD (SEQ ID NOs: 211-216).\nAll transcriptional regulation assays were performed in adherent HEK293 cells cultured in 384-well plates. Cells enzymatically dissociated from a tissue culture flask were counted and plated at 7.5×10^3 cells/well in a 384-well plate. The plates were incubated overnight at 37° C. with 5% CO2 to allow the cells to adhere. On day 2, the cells were co-transfected with a pHet-Act1-2 plasmid (containing the FRB:FKBP12 control fusion proteins (Clontech) or the HCV NS3/4A PR (S139A):PRSIM fusion proteins) and a pZFHD1 plasmid (encoding either luciferase (Clontech) or NanoLuc-PEST (as described above)) using Lipofectamine LTX (ThermoFisher). On day 3, wells were treated with different concentrations of either A/C heterodimeriser (for the FRB:FKBP12 control), simeprevir or with vehicle control, and 24 hours later luminescence was quantified with an Envision plate reader immediately following addition of SteadyGlo luciferase substrate (Promega) or Nano-Glo Vivazine luciferase substrate (Promega). Alternatively, reverse transfections were carried out on Day 1, addition of dimeriser on Day 2 and luminescence quantified 24 hours later on Day 3.\nLuminescence readings were converted into fold-change by dividing the signal in the presence of simeprevir by that in the absence of simeprevir."}, "[2]": {"tested_on": "fluorogenic HCV protease FRET substrate", "test": "HCV NS3/4A PR protease activity assay (fluorogenic peptide cleavage)", "assay_type": "biochemical", "details": "compared to WT", "method": "To assess enzyme activity, cleavage of a fluorogenic HCV protease FRET substrate with an EDANS-DABCYL donor-quencher pair by purified HCV NS3/4A PR and the S139A mutant (RET 51, AnaSpec) was measured. When in close proximity (10-100 Å), as would be the case for the intact peptide, EDANS is excited at 340 nm, and the energy emitted from EDANS (at 490 nm) is quenched by DABCYL. Cleavage of the peptide by the HCV NS3/4A PR separates DABCYL from EDANS, allowing detection of fluorescence at 490 nm.\nSerial dilutions of HCV NS3/4A PR and the active site mutant S139A in assay buffer (HEPES pH 7.8, 5 mM DTT, 100 mM NaCl, 10% glycerol, 0.01% CHAPS) were incubated with the fluorogenic substrate at room temperature. Fluorescence was measured after 3 hours using a PerkinElmer Envision plate reader (excitation 340 nm, emission 490 nm)."}, "[3]": {"tested_on": "GFP-PEST expression in monoclonal HEK293 cell lines", "test": "Flow cytometry kinetics of GFP-PEST expression after simeprevir removal", "assay_type": "cell-based, human", "details": "24h simeprevir induction, then removal"}},
  "data": [
    {"molecule": "“WT” S139A: HCV NS3/4A protease with active site mutation S139A, SEQ ID NO: 2 (protein, HCV NS3/4A PR (S139A)) MKKKGSVVIVGRINLSGDTAYAQQTRGEEGCQETSQTGRDKNQVEGEVQIVSTATQTFLATSINGVLWTVYHGAGTRTIASPKGPVTQMYTNVDKDLVGWQAPQGSRSLTPCTCGSSDLYLVTRHADVIPVRRRGDSRGSLLSPRPISYLKGSAGGPLLCPAGHAVGIFRAAVSTRGVAKAVDFIPVESLETTMRSP", "values": [
      {"measurement": "Max fold change", "setting": "[1]", "value": 6973},
      {"measurement": "enzymatic activity", "setting": "[2]", "value": "No enzymatic activity could be detected at most concentrations tested"},
      {"measurement": "GFP fluorescence after simeprevir removal", "setting": "[3]", "value": "retained high GFP-fluorescence over 24 h"}
    ]}
  ]
}
